Key:
[1] = target: T1, mOrai1-hOrai1 ECL2 (HSD) protein (human/mouse chimera, UniProt Q8BWG9 1-304 (mouse entry)); assay: FACS, 293EBNA, RFI-POC grade
T1 construct: also called Ch
From the text: (§1) FIG. 16A-D illustrates the results of FACS analysis showing binding to the indicated mOrai1-hOrai1 ECL2 chimeric mutants expressed on the surface of HEK-293-EBNA cells. Transfected cells were stained first with recombinant monoclonal antibodies then counter-stained with a secondary phycoerythrin-labeled goat (“Gt”) anti-human (“Hu”) IgG F(ab′)₂ antibody fragment and visualized using FACS. In FIG. 16B and FIG. 16D, The values of Relative Fluorescence Intensity as Percent of Control (RFI-POC) are calculated from the relative fluorescence intensity geometric mean (Geo Mean). The geometric mean is an average calculated by multiplying a series of numbers and taking the nth root where n is the number of numbers in the series. It is a statistical average of a set of transformed numbers often used to represent a central tendency in a highly variable data set that minimizes the effects of extreme values.
(§2) Table 11A and Table 11B feature a schematic representation of the POC data from FIG. 16B and FIG. 16D, respectively, where the binding results are recorded as (+++) denoting binding POC from 40% to 100%, (++) for POC of 5% to less than 40%, (+) for POC from 1% to less than 5% and (−) as lack of binding with POC less than 1%.

[2] = target: T2, mOrai1-hOrai1 ECL2 (VIV) protein (human/mouse chimera, UniProt Q8BWG9 1-304 (mouse entry)); assay: FACS, 293EBNA, RFI-POC grade
T2 construct: also called Ch
From the text: as §1, §2

[3] = target: T3, mOrai1-hOrai1 ECL2 chimeric protein (human/mouse chimera, UniProt Q8BWG9 1-304 (mouse entry)); assay: FACS, 293EBNA, RFI-POC grade
T3 construct: mouse Orai1 with human ECL2; also called Ch
From the text: as §1, §2

[4] = target: T4, hOrai1-mOrai1 ECL2 (…) protein (human/mouse chimera, UniProt Q96D31 1-301); assay: FACS, 293EBNA, RFI-POC grade; design: concentration or dose not given beside the values
T4 construct: also called Ch
T4 sequence (Q96D31 other isoform, or with tags, fused parts or gaps): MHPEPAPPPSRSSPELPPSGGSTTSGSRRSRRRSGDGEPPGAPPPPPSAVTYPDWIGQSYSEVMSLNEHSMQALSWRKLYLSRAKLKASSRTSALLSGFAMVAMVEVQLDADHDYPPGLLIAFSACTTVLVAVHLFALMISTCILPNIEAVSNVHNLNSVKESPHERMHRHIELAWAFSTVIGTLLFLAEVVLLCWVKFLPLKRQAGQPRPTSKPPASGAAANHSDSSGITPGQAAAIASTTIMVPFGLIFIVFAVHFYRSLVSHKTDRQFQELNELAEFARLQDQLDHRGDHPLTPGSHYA

[5] = target: T5, hOrai1-mOrai1 ECL2 (…) protein (human/mouse chimera, UniProt Q96D31 1-301); assay: FACS, 293EBNA, RFI-POC grade; design: concentration or dose not given beside the values; remark: listed apart in the source
T5 construct: also called Ch
T5 sequence (Q96D31 other isoform, or with tags, fused parts or gaps): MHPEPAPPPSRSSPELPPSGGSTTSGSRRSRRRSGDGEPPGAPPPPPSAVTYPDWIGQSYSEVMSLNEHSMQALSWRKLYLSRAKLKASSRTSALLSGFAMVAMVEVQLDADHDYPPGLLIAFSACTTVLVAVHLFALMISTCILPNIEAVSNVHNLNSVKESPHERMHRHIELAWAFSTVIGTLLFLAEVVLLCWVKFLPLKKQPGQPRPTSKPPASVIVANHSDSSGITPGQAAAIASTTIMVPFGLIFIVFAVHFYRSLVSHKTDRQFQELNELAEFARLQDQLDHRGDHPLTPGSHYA

[6] = target: T6, hOrai1-mOrai1 ECL2 (SKPPA) protein (human/mouse chimera, UniProt Q96D31 1-301); assay: FACS, 293EBNA, RFI-POC grade; design: concentration or dose not given beside the values
T6 construct: also called Ch

[7] = target: T7, hOrai1-mOrai1 ECL2 (RPTSKPPA) protein (human/mouse chimera, UniProt Q96D31 1-301); assay: FACS, 293EBNA, RFI-POC grade; design: concentration or dose not given beside the values
T7 construct: also called Ch

[8] = target: T8, hOrai1-mOrai1 ECL2 (…) protein (human/mouse chimera, UniProt Q96D31 1-301); assay: FACS, 293EBNA, RFI-POC grade; design: concentration or dose not given beside the values; remark: listed apart in the source
T8 construct: also called Ch
T8 sequence (Q96D31 other isoform, or with tags, fused parts or gaps): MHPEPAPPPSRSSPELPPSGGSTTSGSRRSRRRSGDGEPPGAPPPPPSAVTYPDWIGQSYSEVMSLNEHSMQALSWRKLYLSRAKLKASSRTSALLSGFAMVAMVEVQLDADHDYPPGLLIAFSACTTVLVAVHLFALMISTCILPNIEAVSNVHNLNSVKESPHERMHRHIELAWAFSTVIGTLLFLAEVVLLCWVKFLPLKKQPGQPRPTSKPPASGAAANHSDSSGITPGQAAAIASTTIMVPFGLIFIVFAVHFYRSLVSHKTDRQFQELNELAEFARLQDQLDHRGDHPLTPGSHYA

[9] = target: T3, mOrai1-hOrai1 ECL2 chimeric protein; assay: FACS, 293EBNA, RFI-POC grade; design: concentration or dose not given beside the values
[10] = target: T9, hOrai1-mOrai1 ECL2 chimeric protein (human/mouse chimera, UniProt Q96D31 1-301); assay: FACS, 293EBNA transfectants
T9 construct: human Orai1 with mouse ECL2; also called Ch
From the text: FIG. 15A-B illustrates the results of FACS analysis showing binding to human Orai1 extracellular loop 2-mouse Orai1 mutant expressed on the surface of HEK-293-EBNA cells. HEK-293-EBNA cells were transiently transfected with mouse Orai1 mutant where human Orai1 extracellular loop 2 replaced the mouse Orai1 extracellular loop 2 and human Orai1 mutant where mouse Orai1 extracellular loop 2 replaced human extracellular loop 2. Transfected cells were stained first with recombinant monoclonal antibodies then counter-stained with a secondary phycoerythrin-labeled goat (“Gt”) anti-human (“Hu”) IgG F(ab′)₂ antibody fragment and visualized using FACS.
(§3) FACS binding analysis. Transfected 293EBNA cells transiently expressed hOrai1-mOrai1 ECL2 or mOrai1-hOrai1 ECL2 chimera. The transfected cells were harvested at 48 hours post-transfection. Cells transfected with pcDNA3.1 were used as negative controls. Cells were washed once with ice-cold 1×PBS, resuspended in ice-cold FACS buffer (1×D-PBS+2% goat serum), and 2×10⁵ cells in 100 μL were stained per antibody combination. All antibody incubation steps were performed on ice for 1 hour. […] Next, the unlabelled antibody was detected using goat F(ab′)₂ anti-mouse or anti-human IgG-phycoerythrin (IgG-PE), followed by a wash with 200 μL of ice-cold FACS buffer before flow cytometry analysis. Unstained cells and cells stained with detecting antibodies were used as negative controls. The values of relative level of fluorescence were calculated using FCS Express (De Novo Software) and mean values were calculated using log-transformed data (geometric mean). The results of the FACS analysis are shown in FIG. 15A-B, which supports the conclusion that the hOrai1 ECL2 domain is the region of hOrai1 where antibodies of the present invention bind.

[11] = target: T9, hOrai1-mOrai1 ECL2 chimeric protein; assay: FACS, 293EBNA; design: concentration or dose not given beside the values
Procedure: as §3
(§4) Representative results of FACS analysis of binding to the mutant hOrai1-mOrai1 ECL2 chimera described above by exemplary anti-hOrai1 antibodies of the present invention are shown in FIG. 17A-D, Table 10A and Table 10B below. Table 10A (Campaign 1) and Table 10B (Campaign 2) show the gain in binding ability of exemplary monoclonal antibodies to hOrai 1-mOrai 1 ECL2 chimera mutants as determined by FACS.

[12] = target: T10, hOrai1-mOrai1 ECL2 (GAA) protein (human/mouse chimera, UniProt Q96D31 1-301); assay: FACS, 293EBNA; design: concentration or dose not given beside the values
T10 construct: also called Ch
Procedure: as §3, §4

[13] = target: T11, hOrai1-mOrai1 ECL2 (…) protein (human/mouse chimera, UniProt Q96D31 1-301); assay: FACS, 293EBNA; design: concentration or dose not given beside the values
T11 construct: also called Ch
Procedure: as §3, §4
T11 sequence (Q96D31 other isoform, or with tags, fused parts or gaps): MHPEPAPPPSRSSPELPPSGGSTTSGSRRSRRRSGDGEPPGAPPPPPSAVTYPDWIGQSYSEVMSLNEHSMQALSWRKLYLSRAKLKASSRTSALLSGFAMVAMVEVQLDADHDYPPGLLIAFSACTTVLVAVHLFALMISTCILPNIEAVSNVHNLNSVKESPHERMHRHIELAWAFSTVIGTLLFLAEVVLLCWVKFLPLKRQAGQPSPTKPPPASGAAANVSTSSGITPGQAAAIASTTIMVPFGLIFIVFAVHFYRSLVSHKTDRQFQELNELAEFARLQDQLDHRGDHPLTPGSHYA

[14] = target: T12, hOrai1-mOrai1 ECL2 (VST) protein (human/mouse chimera, UniProt Q96D31 1-301); assay: FACS, 293EBNA; design: concentration or dose not given beside the values
T12 construct: also called Ch
Procedure: as §3, §4

[15] = target: T13, hOrai1-mOrai1 ECL2 (AANVST) protein (human/mouse chimera, UniProt Q96D31 1-301); assay: FACS, 293EBNA; design: concentration or dose not given beside the values
T13 construct: also called Ch
Procedure: as §3, §4

[16] = target: T14, hOrai1-mOrai1 ECL2 (PASGAA) protein (human/mouse chimera, UniProt Q96D31 1-301); assay: FACS, 293EBNA; design: concentration or dose not given beside the values
T14 construct: also called Ch
Procedure: as §3, §4

human Orai1 = human Orai1 (human, UniProt Q96D31 1-301); assay: cell-based or functional assay
Chain of human Orai1 (Q96D31 whole entry): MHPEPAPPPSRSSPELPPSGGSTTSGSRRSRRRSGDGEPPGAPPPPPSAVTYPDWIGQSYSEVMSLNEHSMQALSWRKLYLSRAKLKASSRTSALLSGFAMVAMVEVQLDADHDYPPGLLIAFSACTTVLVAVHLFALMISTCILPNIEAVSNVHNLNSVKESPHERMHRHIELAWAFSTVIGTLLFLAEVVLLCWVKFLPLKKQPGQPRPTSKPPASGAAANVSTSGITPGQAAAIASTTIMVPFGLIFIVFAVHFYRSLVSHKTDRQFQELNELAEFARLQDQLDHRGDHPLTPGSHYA

T14 sequence (Q96D31 other isoform, or with tags, fused parts or gaps): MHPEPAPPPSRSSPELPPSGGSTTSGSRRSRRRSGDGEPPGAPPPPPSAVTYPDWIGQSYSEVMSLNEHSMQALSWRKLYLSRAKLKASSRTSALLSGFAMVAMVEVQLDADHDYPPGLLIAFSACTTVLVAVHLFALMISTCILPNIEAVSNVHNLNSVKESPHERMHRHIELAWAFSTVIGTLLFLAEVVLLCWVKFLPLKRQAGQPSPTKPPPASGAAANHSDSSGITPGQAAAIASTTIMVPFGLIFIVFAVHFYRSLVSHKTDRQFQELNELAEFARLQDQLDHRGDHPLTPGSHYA
T3 sequence (Q8BWG9 other isoform, or with tags, fused parts or gaps mutant): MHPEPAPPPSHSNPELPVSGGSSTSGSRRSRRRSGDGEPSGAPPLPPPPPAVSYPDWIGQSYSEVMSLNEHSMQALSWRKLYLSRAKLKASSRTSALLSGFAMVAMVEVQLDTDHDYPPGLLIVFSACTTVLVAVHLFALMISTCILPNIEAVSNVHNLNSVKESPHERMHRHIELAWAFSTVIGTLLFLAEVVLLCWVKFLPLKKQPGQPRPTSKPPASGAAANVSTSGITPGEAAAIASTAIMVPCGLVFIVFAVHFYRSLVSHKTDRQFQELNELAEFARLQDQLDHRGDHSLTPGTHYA
T1 sequence (Q8BWG9 other isoform, or with tags, fused parts or gaps): as the sequence (Q8BWG9 other isoform, or with tags, fused parts or gaps mutant) above, with V226H, T228D counted along it
T13 sequence (Q96D31 other isoform, or with tags, fused parts or gaps): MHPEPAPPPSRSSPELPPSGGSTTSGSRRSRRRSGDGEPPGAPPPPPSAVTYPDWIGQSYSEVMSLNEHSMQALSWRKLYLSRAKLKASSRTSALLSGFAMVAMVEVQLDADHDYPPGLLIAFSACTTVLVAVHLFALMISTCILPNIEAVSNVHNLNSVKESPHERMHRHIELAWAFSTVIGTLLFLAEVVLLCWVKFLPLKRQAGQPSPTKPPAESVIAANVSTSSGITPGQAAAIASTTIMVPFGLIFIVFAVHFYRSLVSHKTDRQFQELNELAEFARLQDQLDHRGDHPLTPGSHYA
T10 sequence (Q96D31 other isoform, or with tags, fused parts or gaps): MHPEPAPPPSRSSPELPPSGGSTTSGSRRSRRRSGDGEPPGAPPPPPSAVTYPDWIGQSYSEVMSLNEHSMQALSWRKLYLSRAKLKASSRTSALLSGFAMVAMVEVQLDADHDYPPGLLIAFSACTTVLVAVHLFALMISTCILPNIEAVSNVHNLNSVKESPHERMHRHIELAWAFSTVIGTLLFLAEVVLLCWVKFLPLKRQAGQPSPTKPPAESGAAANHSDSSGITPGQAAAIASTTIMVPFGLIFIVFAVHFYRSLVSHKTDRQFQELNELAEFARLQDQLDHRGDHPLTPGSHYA
T12 sequence (Q96D31 other isoform, or with tags, fused parts or gaps): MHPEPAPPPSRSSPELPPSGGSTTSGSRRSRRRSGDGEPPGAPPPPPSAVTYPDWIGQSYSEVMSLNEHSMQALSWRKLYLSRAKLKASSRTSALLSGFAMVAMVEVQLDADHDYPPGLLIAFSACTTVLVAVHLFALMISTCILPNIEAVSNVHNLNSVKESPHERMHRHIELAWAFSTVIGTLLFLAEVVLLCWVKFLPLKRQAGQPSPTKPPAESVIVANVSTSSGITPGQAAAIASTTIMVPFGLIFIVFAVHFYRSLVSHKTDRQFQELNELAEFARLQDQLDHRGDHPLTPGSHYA
T2 sequence (Q8BWG9 other isoform, or with tags, fused parts or gaps): as the sequence (Q8BWG9 other isoform, or with tags, fused parts or gaps mutant) above, with G221V, A222I, A223V counted along it
T9 sequence (Q96D31 other isoform, or with tags, fused parts or gaps mutant): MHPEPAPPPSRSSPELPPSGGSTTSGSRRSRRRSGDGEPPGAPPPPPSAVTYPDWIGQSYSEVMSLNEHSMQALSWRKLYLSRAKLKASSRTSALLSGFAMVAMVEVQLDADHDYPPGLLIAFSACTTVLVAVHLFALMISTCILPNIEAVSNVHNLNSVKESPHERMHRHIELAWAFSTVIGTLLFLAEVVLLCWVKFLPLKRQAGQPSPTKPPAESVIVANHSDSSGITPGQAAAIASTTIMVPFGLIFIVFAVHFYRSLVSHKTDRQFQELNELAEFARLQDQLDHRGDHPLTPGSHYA
T6 sequence (Q96D31 other isoform, or with tags, fused parts or gaps): as the sequence (Q96D31 other isoform, or with tags, fused parts or gaps mutant) above, with K213S, P214K, A216P, E217A counted along it
T7 sequence (Q96D31 other isoform, or with tags, fused parts or gaps): as the sequence (Q96D31 other isoform, or with tags, fused parts or gaps mutant) above, with S210R, K213S, P214K, A216P, E217A counted along it

| POC (percent of control, FACS Geo Mean relative to Ch. 1) [1] [%] | POC (percent of control, FACS Geo Mean relative to Ch. 1) [2] [%] | POC (percent of control, FACS Geo Mean relative to Ch. 1) [3] [%] | percent of control (POC) of FACS Geo Mean [4] [%] | percent of control (POC) of FACS Geo Mean [5] [%] | percent of control (POC) of FACS Geo Mean [6] [%] | percent of control (POC) of FACS Geo Mean [7] [%] | percent of control (POC) of FACS Geo Mean [8] [%] | percent of control (POC) of FACS Geo Mean [9] [%] | binding result [10] | percent of control (POC) of FACS Geo Mean [11] [%] | percent of control (POC) of FACS Geo Mean [12] [%] | percent of control (POC) of FACS Geo Mean [13] [%] | percent of control (POC) of FACS Geo Mean [14] [%] | percent of control (POC) of FACS Geo Mean [15] [%] | percent of control (POC) of FACS Geo Mean [16] [%] | IC50 IFN-g, whole blood Donor A, recombinant mAb (human Orai1) [nM] | IC50 IFN-g, whole blood Donor B, recombinant mAb (human Orai1) [nM] | IC50 IL-2, whole blood Donor A, recombinant mAb (human Orai1) [nM] | IC50 IL-2, whole blood Donor B, recombinant mAb (human Orai1) [nM] | Binder |
| --- | --- | --- | --- | --- | --- | --- | --- | --- | --- | --- | --- | --- | --- | --- | --- | --- | --- | --- | --- | --- |
| 40 to 100 | 40 to 100 | 40 to 100 | 40 to 100 | 40 to 100 | 5 to 40 | 40 to 100 | 40 to 100 | 40 to 100 | no binding (tested: 1 µg) | < 1 | < 1 | < 1 | < 1 | < 1 | < 1 | 1.18 | 1.1 | 0.49 | 0.21 | mAb 2D2.1 (antibody, human IgG2, lambda, V domains shown, fully human IgG2 lambda, Campaign 1; also called mAb 2D.1) VH: QVQLQQWGAGLLKPSETLSLTCAVYGGSFSGYYWSWIRQPPGKGLEWIGEIDHSGRINYNPALKSRLTISVDTSKNQFSLKLSSVTAADTAVYYCARAGSGGYEDWFDPWGQGTLVTVSS VL: QSVLTQPPSVSGAPGQRVTISCTGSSSNIGAGYNVHWYQQFPRTDPKLLIYVYNIRPSGVPDRFSGSRSGTSASLAITGLQTEDEADYYCQSYDSSLSGVVFGGGTKLTVLG |
| 40 to 100 | 40 to 100 | 40 to 100 | – | – | – | – | – | – | no binding (tested: 1 µg) | < 1 | < 1 | < 1 | < 1 | < 1 | < 1 | 5.27 | 3.93 | 2.06 | 0.9 | mAb 2B7.1 (antibody, human IgG2, V domains shown, fully human, Campaign 1) VH: QVQLQQWGAGLLKPSETLSLTCAVYGGSFSGYYWSWIRQPPGKGLEWIGEIDHSGSTNYNPALKSRLTISVDTSKNQFSLKLSSVTAADTAVYYCARAGSGGYEDWFDPWGQGTLVTVSS VL: QSVLTQPPSVSGAPGQRVTISCTGSSSNIGTGYNVHWYQQFPRTDPKLLIYVYNIRPSGVPDRFSGSRSGTSASLAITGLQTEDEADYYCQSYDSSLSGVVFGGGTKLTVLG |
| 40 to 100 | 40 to 100 | 40 to 100 | – | – | – | – | – | – | no binding (tested: 1 µg) | < 1 | < 1 | < 1 | < 1 | < 1 | < 1 | 1.62 | 1.61 | 0.57 | 0.34 | mAb 2C1.1 (antibody, human IgG2, lambda, V domains shown, fully human IgG2 lambda, Campaign 1; tested hybridoma-purified and recombinant; also called anti-hOrai1 mAb 2C1.1) VH: QVQLQQWGAGLLKPSETLSLTCAVYGGSFSGYYWSWIRQPPGKGLEWIGEIDHSGSTNYNPALKSRLTISVDTSKNQFSLKLSSVTAADTAVYYCARAGSGGYEDWFDPWGQGTLVTVSS VL: QSVLTQPPSVSGAPGQRVTISCTGSSSNIGAGYNVHWYQQFPRTDPKLLIYVYNIRPSGVPDRFSGSRSGTSASLAITGLQTEDEADYYCQSYDSSLSGVVFGGGTKLTVLG |

Reference: patent publication US20120231006A1 (Amgen, published 2012)
